From patent US6468740
surface (amide) = not defined here

B1: Ac-RRQFKVVT-OH, free peptide (peptide)
peptide: Ac-RRQFKVVT-OH
B2: Ac-RQFKVVT-OH, free peptide (peptide)
peptide: Ac-RQFKVVT-OH
B3: Ac-RQFKVVT-NH2, free peptide (peptide)
peptide: Ac-RQFKVVT-NH2
B4: Ac-QFKVVT-OH, free peptide (peptide)
peptide: Ac-QFKVVT-OH
B5: Ac-FKVVT-OH, free peptide (peptide)
peptide: Ac-FKVVT-OH
B6: LRRQFKVV, surface-immobilized peptide (peptide)
peptide: Ac-LRRQFKVV-{surface (amide)}
modifications: reading uncertain; also: C-terminus amide-linked to surface
B7: FLRRQFKV, surface-immobilized peptide (peptide)
peptide: Ac-FLRRQFKV-{surface (amide)}
modifications: reading uncertain; also: C-terminus amide-linked to surface
B8: RQFKVVT, surface-immobilized peptide (peptide)
peptide: Ac-RQFKVVT-{surface (amide)}
modifications: reading uncertain; also: C-terminus amide-linked to surface
B9: RRQFKVV, surface-immobilized peptide (peptide)
peptide: Ac-RRQFKVV-{surface (amide)}
modifications: reading uncertain; also: C-terminus amide-linked to surface
B10: LRRQFKV, surface-immobilized peptide (peptide)
peptide: Ac-LRRQFKV-{surface (amide)}
modifications: reading uncertain; also: C-terminus amide-linked to surface
B11: FLRRQFK, surface-immobilized peptide (peptide)
peptide: Ac-FLRRQFK-{surface (amide)}
modifications: reading uncertain; also: C-terminus amide-linked to surface
B12: QFKVVT, surface-immobilized peptide (peptide)
peptide: Ac-QFKVVT-{surface (amide)}
modifications: reading uncertain; also: C-terminus amide-linked to surface
B13: RQFKVV, surface-immobilized peptide (peptide)
peptide: Ac-RQFKVV-{surface (amide)}
modifications: reading uncertain; also: C-terminus amide-linked to surface
B14: RRQFKV, surface-immobilized peptide (peptide)
peptide: Ac-RRQFKV-{surface (amide)}
modifications: reading uncertain; also: C-terminus amide-linked to surface
B15: LRRQFK, surface-immobilized peptide (peptide)
peptide: Ac-LRRQFK-{surface (amide)}
modifications: reading uncertain; also: C-terminus amide-linked to surface
B16: …, surface-immobilized peptide (peptide)
peptide: Ac-FLRRQFKVVT-{surface (amide)}
modifications: reading uncertain; also: C-terminus amide-linked to surface
B17: FLRRQF, surface-immobilized peptide (peptide)
peptide: Ac-FLRRQF-{surface (amide)}
modifications: reading uncertain; also: C-terminus amide-linked to surface
B18: FKVVT, surface-immobilized peptide (peptide)
peptide: Ac-FKVVT-{surface (amide)}
modifications: reading uncertain
B19: QFKVV, surface-immobilized peptide (peptide)
peptide: Ac-QFKVV-{surface (amide)}
modifications: reading uncertain; also: C-terminus amide-linked to surface
B20: RQFKV, surface-immobilized peptide (peptide)
peptide: Ac-RQFKV-{surface (amide)}
modifications: reading uncertain; also: C-terminus amide-linked to surface
B21: RRQFK, surface-immobilized peptide (peptide)
peptide: Ac-RRQFK-{surface (amide)}
modifications: reading uncertain; also: C-terminus amide-linked to surface
B22: LRRQF, surface-immobilized peptide (peptide)
peptide: Ac-LRRQF-{surface (amide)}
modifications: reading uncertain; also: C-terminus amide-linked to surface
B23: FLRRQ, surface-immobilized peptide (peptide)
peptide: Ac-FLRRQ-{surface (amide)}
modifications: reading uncertain
B24: KVVT, surface-immobilized peptide (peptide)
peptide: Ac-KVVT-{surface (amide)}
modifications: reading uncertain; also: C-terminus amide-linked to surface
B25: FKVV, surface-immobilized peptide (peptide)
peptide: Ac-FKVV-{surface (amide)}
modifications: reading uncertain
B26: QFKV, surface-immobilized peptide (peptide)
peptide: Ac-QFKV-{surface (amide)}
modifications: reading uncertain; also: C-terminus amide-linked to surface
B27: RQFK, surface-immobilized peptide (peptide)
peptide: Ac-RQFK-{surface (amide)}
modifications: reading uncertain; also: C-terminus amide-linked to surface
B28: RRQF, surface-immobilized peptide (peptide)
peptide: Ac-RRQF-{surface (amide)}
modifications: reading uncertain; also: C-terminus amide-linked to surface
B29: LRRQ, surface-immobilized peptide (peptide)
peptide: Ac-LRRQ-{surface (amide)}
modifications: reading uncertain; also: C-terminus amide-linked to surface
B30: FLRR, surface-immobilized peptide (peptide)
peptide: Ac-FLRR-{surface (amide)}
modifications: reading uncertain
B31: …, surface-immobilized peptide (peptide)
peptide: Ac-LRRQFKVVT-{surface (amide)}
modifications: reading uncertain; also: C-terminus amide-linked to surface
B32: …, surface-immobilized peptide (peptide)
peptide: Ac-FLRRQFKVV-{surface (amide)}
modifications: reading uncertain; also: C-terminus amide-linked to surface
B33: RRQFKVVT, surface-immobilized peptide (peptide)
peptide: Ac-RRQFKVVT-{surface (amide)}
modifications: reading uncertain; also: C-terminus amide-linked to surface

These binders were tested against monoclonal antibody D32.39 (assay: solution competition of free peptide against radiolabeled dynorphin B peptide for D32.39).

Binder | IC50 [nM]
B1 | 3.9
B2 | 11
B3 | 7.3
B4 | 3200
B5 | 77000

Each binder was assayed against monoclonal antibody D32.39 (assay: not given).

Binder | Normalized Intensity (%)
B6 | 44
B7 | 14
B8 | 99
B9 | 58
B10 | 16
B11 | 10
B12 | 28
B13 | 54
B14 | 16
B15 | 12
B16 | 98
B17 | 8
B18 | 13
B19 | 17
B20 | 16
B21 | 12
B22 | 10
B23 | 8
B24 | 11
B25 | 10
B26 | 11
B27 | 13
B28 | 11
B29 | 10
B30 | 6
B31 | 87
B32 | 37
B33 | 99

Target: monoclonal antibody D32.39
Assay: not given
Remark: another data set of the same source

Binder | relative signal [%]
B16 | 100
